The target in assay [1] is T1, SARS-CoV-2 spike protein on live SARS-CoV-2 virus (SARS-CoV-2, UniProt P0DTC2 13-1273). In words: cell-based or functional assay.
Assay [2] addresses T2, SARS-CoV-2 spike protein on pseudovirus (SARS-CoV-2, UniProt P0DTC2 13-1273). Nature of the assay: cell-based or functional assay.
In assay [3] the target is T1, SARS-CoV-2 spike protein on live …. Nature of the assay: cell-based or functional assay. This is another data set of the same source.
Assay [4] deals with recombinant SARS-CoV-2 spike (S) protein trimer (SARS-CoV-2, UniProt P0DTC2 13-1213).
The target in assay [5] is T2, SARS-CoV-2 spike protein on pseudovirus. Nature of the assay: cell-based or functional assay. The source holds these as a separate data set.
Assay [6] deals with SARS-CoV-1 spike protein on HIV-based pseudovirus (SARS-CoV, UniProt P59594 14-1255). Nature of the assay: cell-based or functional assay.

We go through 19 molecules from patent publication US20220403009A1 (IGM BIOSCIENCES, published 2022).

Positions count from the first letter of the chain named. Where two headings read alike, the source gives them in different places.

B1: Ab4 IgM (antibody)
VH: QVQLVESGGGVVQPGRSLRLSCAASGFTFSNYAMYWVRQAPGKGLEWVAVISYDGSNKYYADSVKGRFTISRDNSKNTLYLQMNSLRTEDTAVYYCASGSDYGDYLLVYWGQGTLVTVSS
VL: QSALTQPASVSGSPGQSITISCTGTSSDVGGYNYVSWYQQHPGKAPKLMIYDVSKRPSGVSNRFSGSKSGNTASLTISGLQSEDEADYYCNSLTSISTWVFGGGTKLTVL
chain: not shown
B1: in assay [1], the “IgM Fold Improvement Over IgG1” value was found to be 59 fold and the “IgM IC50, SARS-CoV-2 live virus microneutralization” value is 0.0031 µg/mL. Moreover, in assay [2], the “IgM Fold Improvement Over IgG1” value was 31 fold and the “IgM IC50, SARS-CoV-2 pseudovirus neutralization” value was determined as 0.058 ng/mL.

B2: Ab12 IgG (antibody, V domains shown)
VH: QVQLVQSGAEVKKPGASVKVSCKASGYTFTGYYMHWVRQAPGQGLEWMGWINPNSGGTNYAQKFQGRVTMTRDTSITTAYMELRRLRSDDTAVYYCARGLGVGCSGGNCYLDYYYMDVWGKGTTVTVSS
VL: B1 VL with S82A, A86G, N91S, L93Y, I96S
As for B2, the “IgG IC50, SARS-CoV-2 live virus microneutralization” value in assay [3] worked out at 2.7 µg/mL. For the same molecule, the “IgG IC50, SARS-CoV-2 pseudovirus neutralization” value in assay [2] was 0.077 µg/mL.

B3: Ab4 IgG (antibody, V domains shown)
VH: B1 VH
VL: B1 VL
On to B3, for which, in assay [1], the “IgG IC50, SARS-CoV-2 live virus microneutralization” value is 0.18 µg/mL. In addition, the “IgG IC50, SARS-CoV-2 pseudovirus neutralization” value in assay [2] was 0.0018 µg/mL.

B4: Ab12 IgM (antibody)
VH: not shown
VL: B1 VL with S82A, A86G, N91S, L93Y, I96S
chain: not shown
For the molecule B4, in assay [3], the “IgM Fold Improvement Over IgG1” value amounted to 330 fold and the “IgM IC50, SARS-CoV-2 live virus microneutralization” value is 0.0081 µg/mL. Also, in assay [2], the “IgM Fold Improvement Over IgG1” value stood at 180 fold and the “IgM IC50, SARS-CoV-2 pseudovirus neutralization” value was 0.42 ng/mL.

B5: Ab1 IgM (antibody)
VH: EVQLVESGGGLVQPGGSLRLSCAASGFTVSSNYMSWVRQAPGKGLEWVSVIYSGGSTFYADSVKGRFTISRDNSMNTLFLQMNSLRAEDTAVYYCARVLPMYGDYLDYWGQGTLVTVSS
VL: not shown
chain: not shown
Regarding B5, in assay [1], the “IgM Fold Improvement Over IgG1” value was 10 fold and the “IgM IC50, SARS-CoV-2 live virus microneutralization” value was 0.013 µg/mL. For the same molecule, in assay [2], the “IgM Fold Improvement Over IgG1” value is 67 fold and the “IgM IC50, SARS-CoV-2 pseudovirus neutralization” value was found to be 0.15 ng/mL.

B6: Ab1 IgG (antibody, V domains shown)
VH: B5 VH
VL: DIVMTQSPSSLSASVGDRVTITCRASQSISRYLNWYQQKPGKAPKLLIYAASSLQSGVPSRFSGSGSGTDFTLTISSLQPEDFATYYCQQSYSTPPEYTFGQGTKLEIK
Regarding B6, the “IgG IC50, SARS-CoV-2 live virus microneutralization” value in assay [1] was determined as 0.13 µg/mL. In assay [2], the “IgG IC50, SARS-CoV-2 pseudovirus neutralization” value came to 0.01 µg/mL.

B7: Ab11 IgM (antibody)
VH: QVQLVQSGAEVKKPGSSVKVSCKASGGTFSSYAISWVRQAPGQGLEWMGGNIPIFGTANYAQKFQGRVTITADESTSTAYMELSSLRSEDTAVYYCARGVGYRGVIPLNWFDPWGQGTVVTVSS
VL: EIVMTQSPATLSVSPGERATLSCRASQSVSSDLAWYQHKPGQAPRLLIYGASTRATGIPVRFSGSGSGTEFTLTISSLQSEDFAVYYCQQYNNWPPFTFGGGTKVEIK
chain: not shown
For the molecule B7, in assay [3], the “IgM Fold Improvement Over IgG1” value is greater than 870 fold and the “IgM IC50, SARS-CoV-2 live virus microneutralization” value was 0.057 µg/mL. Further, in assay [2], the “IgM Fold Improvement Over IgG1” value stood at 86 fold and the “IgM IC50, SARS-CoV-2 pseudovirus neutralization” value stood at 3.7 ng/mL.

B8: Ab11 IgG (antibody, V domains shown)
VH: B7 VH
VL: B7 VL
In the case of B8, the “IgG IC50, SARS-CoV-2 live virus microneutralization” value in assay [3] was greater than 50 µg/mL. The “IgG IC50, SARS-CoV-2 pseudovirus neutralization” value in assay [2] amounted to 0.32 µg/mL.

B9: Ab10 IgM (antibody)
VH: QITLKESGPTLVKPTQTLTLTCTFSGFSLSTSGVGVGWIRQPPGKALEWLALIYWDDDKRYSPSLKSRLTITKDTSKNQVVLTMTNMDPVDTATYYCAHHKIERIFDYWGQGTLVTVSS
VL: QSALAQPASVSGSPGQSITISCTGTSSDVGAYNYVSWYQQHPGKAPKLMIYDVSKRPSGVSNRFSGSKSGNTASLTISGLQAEDEADYYCSSYTTSSTVFGGGTKLTVL
chain: not shown
For orientation: EC50 (read off the curve) means the concentration that produces a half-maximal response. Consider B9, for which the “EC50 (read off the curve)” value in assay [4] is roughly 0.3 nM. In assay [3], the “IgM Fold Improvement Over IgG1” value amounted to 390 fold and the “IgM IC50, SARS-CoV-2 live virus microneutralization” value is 0.0012 µg/mL. Besides, in assay [2], the “IgM Fold Improvement Over IgG1” value was found to be 64 fold and the “IgM IC50, SARS-CoV-2 pseudovirus neutralization” value came out at 0.092 ng/mL.

B10: Ab10 IgG (antibody, V domains shown)
VH: B9 VH
VL: B9 VL
In the case of B10, the “EC50 (read off the curve)” value in assay [4] was roughly 1 nM. The “IgG IC50, SARS-CoV-2 live virus microneutralization” value in assay [3] amounted to 0.47 µg/mL. The “IgG IC50, SARS-CoV-2 pseudovirus neutralization” value in assay [2] was 0.0059 µg/mL.

B11: Ab8 IgM (antibody)
VH: EVQLVESGGGLIQPGGSLRLSCAASGFTVSRNYMNWVRQAPGKGLEWVSVIYSGGSTFYADSVKGRFTISRDNSKNTLYLQMNSLRAEDTAVYYCARDASSYGIDWGQGTLVTVSS
VL: not shown
chain: not shown
On to B11, for which, in assay [1], the “IgM Fold Improvement Over IgG1” value amounted to 3.3 fold and the “IgM IC50, SARS-CoV-2 live virus microneutralization” value stood at 0.028 µg/mL. The “IgM IC50, SARS-CoV-2 pseudovirus neutralization” value in assay [2] worked out at 2.7 ng/mL.

B12: Ab8 IgG (antibody, V domains shown)
VH: B11 VH
VL: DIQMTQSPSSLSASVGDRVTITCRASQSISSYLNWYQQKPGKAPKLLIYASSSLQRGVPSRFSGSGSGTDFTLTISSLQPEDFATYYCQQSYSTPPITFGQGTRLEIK
As for B12, the “IgG IC50, SARS-CoV-2 live virus microneutralization” value in assay [1] was found to be 0.093 µg/mL. Moreover, the “IgG IC50, SARS-CoV-2 pseudovirus neutralization” value in assay [2] was determined as 0.0019 µg/mL.

B13: Ab3 IgM (antibody)
VH: QVQLVESGGGLVKPGGSLRLSCAASGFTFSDYYMSWIRQAPGKGLEWVSYITYSGSTIYYADSVKGRFTISRDNAKSSLYLQMNSLRAEDTAVYYCARDRGTTMVPFDYWGQGTLVTVSS
VL: DIQMTQSPSSLSASVGDRVTITCQASQDITNYLNWYQQKPGKAPKLLIYAASNLETGVPSRFSGSGSGTDFTFTISGLQPEDIATYYCQQYDNLPLTFGGGTKVEIK
chain: not shown
Regarding B13, the “IgM IC50, SARS-CoV-2 live virus microneutralization” value in assay [1] is 0.0038 µg/mL. Also, the “IgM IC50, SARS-CoV-2 pseudovirus neutralization” value in assay [2] came out at 0.11 ng/mL.

B14: Ab3 IgG (antibody, V domains shown)
VH: B13 VH
VL: B13 VL
In the case of B14, the “IgG IC50, SARS-CoV-2 pseudovirus neutralization” value in assay [2] was found to be 0.00057 µg/mL.

B15: Ab7 IgM (antibody)
VH: EVQLVESGGGLVQPGGSLRLSCAVSGFTVSSNYMSWVRQAPGKGLEWVSVIYTGGGTYYADSVKGRFTISRDNSKNTLYLQMNTLRAEDTTVYYCARGDGSYYRAFDYWGQGTLVTVSS
VL: DIQMTQSPSSLSASVGDRVTITCRASQSISNYLNWYHQKPGKAPKLLIYAASSLQSGVPSRFSGSGSGTDFTLTISSLQPEDFATYYCQQSYSPPPTFGPGTKVEIK
chain: not shown
As to B15, in assay [1], the “IgM Fold Improvement Over IgG1” value stood at 19 fold and the “IgM IC50, SARS-CoV-2 live virus microneutralization” value was determined as 0.0016 µg/mL. In addition, in assay [2], the “IgM Fold Improvement Over IgG1” value came out at 8.8 fold and the “IgM IC50, SARS-CoV-2 pseudovirus neutralization” value was determined as 0.042 ng/mL.

B16: Ab7 IgG (antibody, V domains shown)
VH: B15 VH
VL: B15 VL
Turning to B16, the “IgG IC50, SARS-CoV-2 live virus microneutralization” value in assay [1] amounted to 0.03 µg/mL. Moreover, in assay [2], the “IgG IC50, SARS-CoV-2 pseudovirus neutralization” value was determined as 0.00037 µg/mL.

B17: CR3022 IgA2m2 + J (antibody)
VH: QMQLVQSGTEVKKPGESLKISCKGSGYGFITYWIGWVRQMPGKGLEWMGIIYPGDSETRYSPSFQGQVTISADKSINTAYLQWSSLKASDTAIYYCAGGSGISTPMDVWGQGTTVTVSS
VL: not shown
chain: not shown
Regarding B17, in assay [5], the “IC50, SARS-CoV-2 pseudovirus neutralization” value is greater than 100000 µg/mL. Moreover, the “IC50, SARS-CoV-1 pseudovirus neutralization” value in assay [6] was determined as 2.3 µg/mL.

B18: CR3022 IgM + J (antibody)
VH: B17 VH
VL: not shown
chain: not shown
B18: the “IC50, SARS-CoV-2 pseudovirus neutralization” value in assay [5] is greater than 100000 µg/mL. Further, the “IC50, SARS-CoV-1 pseudovirus neutralization” value in assay [6] was found to be 0.47 µg/mL.

B19: CR3022 IgA1 + J (antibody)
VH: B17 VH
VL: not shown
chain: not shown
On to B19, for which, in assay [5], the “IC50, SARS-CoV-2 pseudovirus neutralization” value was greater than 100000 µg/mL. Also, the “IC50, SARS-CoV-1 pseudovirus neutralization” value in assay [6] worked out at 1.9 µg/mL.
